Measurements reported in publication PMC12278339 (2025).

Target: Gab2a 12mer peptide (Homo sapiens, UniProt Q9UQC2)
Experiment: SPR

Gab2a 12mer peptide, sequence (Q9UQC2 whole entry): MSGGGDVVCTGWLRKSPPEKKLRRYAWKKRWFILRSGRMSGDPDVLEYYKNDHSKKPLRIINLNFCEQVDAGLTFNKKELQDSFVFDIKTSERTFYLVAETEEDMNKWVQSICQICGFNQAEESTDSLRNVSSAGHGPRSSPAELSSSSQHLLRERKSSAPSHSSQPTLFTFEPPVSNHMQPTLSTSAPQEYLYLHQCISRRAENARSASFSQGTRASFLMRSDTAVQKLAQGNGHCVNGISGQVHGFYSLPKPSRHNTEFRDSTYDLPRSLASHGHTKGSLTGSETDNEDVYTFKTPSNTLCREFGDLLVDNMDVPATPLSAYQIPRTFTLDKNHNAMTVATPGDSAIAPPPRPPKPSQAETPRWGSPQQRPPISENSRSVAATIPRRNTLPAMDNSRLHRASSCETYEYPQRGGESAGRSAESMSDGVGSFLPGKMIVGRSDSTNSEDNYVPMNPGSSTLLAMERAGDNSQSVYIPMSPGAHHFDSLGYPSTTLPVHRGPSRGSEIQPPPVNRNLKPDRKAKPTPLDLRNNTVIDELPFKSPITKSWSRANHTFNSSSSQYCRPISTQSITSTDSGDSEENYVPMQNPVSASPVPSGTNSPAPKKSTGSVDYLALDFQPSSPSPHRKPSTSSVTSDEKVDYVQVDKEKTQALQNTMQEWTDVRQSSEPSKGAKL

Kd: 161 µM
B1: Grb2 SH3C (protein)
chain: QQPTYVQALFDFDPQEDGELGFRRGDFIHVMDNSDPNWWKGACHGQTGMFPRNYVTPVNR
